Measurements as given in PMC3022805 (Journal of Biomedical Science, 2011).
“And” between values parts separate entries of the source, which are not always exact repeats. Identical values can stand only once.

How the values were obtained:
[1] = target: the molecule itself; assay: AUC; sedimentation velocity and sedimentation equilibrium fitted together to a global discrete species model (SEDPHAT); PBS pH 7.3 with 5 mM DHPC (submicellar), 20°C
[2] = target: the molecule itself; assay: AUC; sedimentation velocity and sedimentation equilibrium fitted together to a global discrete species model (SEDPHAT); PBS pH 7.3 with 50 mM DHPC (micelles), 20°C
[3] = target: the molecule itself; assay: AUC; sedimentation velocity (42,000 rpm, 0.5 mg/ml) and sedimentation equilibrium (10,000, 15,000, 20,000 rpm, 18 h each) fitted together to a global discrete species model (SEDPHAT); PBS pH 7.3, 20°C, no DHPC

| Protein | stoichiometry N [1] | stoichiometry N [2] | stoichiometry N [3] |
| --- | --- | --- | --- |
| apoE3-(72-166) (domain or fragment, human, UniProt P02649 90-184, looked up, 12 kDa; numbers count on: the mature protein of 299 amino acids; source: E. coli, purified) KAYKSELEEQLTPVAEETRARLSKELQAAQARLGADMEDVCGRLVQYRGEVQAMLGQSTEELRVRLASHLRKLRKRLLRDADDLQKRLAVYQAGA | 4 | 2 | 6 |
| apoE4-(72-166) (domain or fragment, human, UniProt P02649 90-184, looked up, 12 kDa; numbers count on: the mature protein of 299 amino acids; source: E. coli, purified) KAYKSELEEQLTPVAEETRARLSKELQAAQARLGADMEDVRGRLVQYRGEVQAMLGQSTEELRVRLASHLRKLRKRLLRDADDLQKRLAVYQAGA |  | 2 | 4 |
| apoE2-(72-166) (domain or fragment, human, UniProt P02649 90-184, looked up, 12 kDa; numbers count on: the mature protein of 299 amino acids; cDNA amplified with the printed primers and ligated NdeI-XhoI into pET-29a(+); source: E. coli, purified) KAYKSELEEQLTPVAEETRARLSKELQAAQARLGADMEDVCGRLVQYRGEVQAMLGQSTEELRVRLASHLRKLRKRLLRDADDLQKCLAVYQAGA |  | 4 | 2 and 6 |
